3 molecules from paper PMC3484126 can be followed below.

For data set [1], the target named is T1, KLF4 full-length (UniProt O43474-1 1-479). The following applies: protein: recombinant; tags: N-terminal 6xHis-lipoyl-TEV tag, cleaved; label: 5' fluorescein.
For data set [2], the target named is T1, KLF4 full-length. The following applies: protein: recombinant; tags: N-terminal 6xHis-lipoyl-TEV tag, cleaved; label: 5' Alexa488.
The target in data set [3] is T1, KLF4 full-length. Conditions: protein: recombinant; tags: N-terminal 6xHis-lipoyl-TEV tag, cleaved; label: 5' fluorescein. This is another data set of the same source.

Read-outs that look alike come from different tables or passages of the source.

T1 sequence (O43474 other isoform, or with tags, fused parts or gaps): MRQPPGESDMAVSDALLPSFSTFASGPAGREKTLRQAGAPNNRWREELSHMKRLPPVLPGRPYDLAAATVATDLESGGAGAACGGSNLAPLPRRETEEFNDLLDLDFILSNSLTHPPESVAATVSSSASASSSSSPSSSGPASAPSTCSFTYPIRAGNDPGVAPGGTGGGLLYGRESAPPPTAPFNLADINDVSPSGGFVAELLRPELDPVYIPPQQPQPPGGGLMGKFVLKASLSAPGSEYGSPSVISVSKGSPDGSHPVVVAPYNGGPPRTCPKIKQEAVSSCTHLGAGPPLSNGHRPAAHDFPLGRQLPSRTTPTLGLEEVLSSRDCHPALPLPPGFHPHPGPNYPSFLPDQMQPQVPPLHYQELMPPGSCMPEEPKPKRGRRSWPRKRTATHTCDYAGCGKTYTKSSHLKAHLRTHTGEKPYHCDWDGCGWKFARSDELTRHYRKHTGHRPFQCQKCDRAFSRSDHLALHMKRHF

B1: *K-2 (dsDNA)
DNA 1: GGGCCACCCCGCC
DNA 2: GGCGGGGTGGCCC
B1: in the data set with KLF4 full-length [1], the binding signal amounted to 100 fold weaker than *K-1.

B2: *P (dsDNA)
DNA 1: GGACATGTCCGGACATGTCC
DNA 2: GGACATGTCCGGACATGTCC
On to B2, for which, in the data set with KLF4 full-length [2], the binding result is listed as “no binding”.

B3: *K-1 (dsDNA)
DNA 1: AGGGTGTGGCCCGC
DNA 2: GCGGGCCACACCCT
As to B3, the binding result with KLF4 full-length [3] is “binds”.
